In patent US20240285753A1 (DUKE UNIVERSITY, published 2024):
Numbering of substitutions follows the chain as printed. Read-outs that look alike come from different tables or passages of the source.

How the values were obtained:
[1] = molecular target: T1, FP-13; experiment: ELISA, coated antigen, mAb titrated
T1 epitope scaffold: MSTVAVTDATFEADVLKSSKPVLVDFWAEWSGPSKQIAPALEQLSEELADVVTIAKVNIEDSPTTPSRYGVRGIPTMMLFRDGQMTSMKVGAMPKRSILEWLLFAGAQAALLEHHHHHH

[2] = molecular target: T2, S2hlx-Ex25; experiment: ELISA; antigen coated, mAb titrated
T2 chain: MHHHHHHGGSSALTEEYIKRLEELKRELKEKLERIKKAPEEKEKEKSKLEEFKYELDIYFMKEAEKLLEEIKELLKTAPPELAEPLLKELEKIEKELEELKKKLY

[3] = molecular target: T3, S2hlx-Ex20; experiment: SPR, mAb captured, antigen as analyte
T3 chain: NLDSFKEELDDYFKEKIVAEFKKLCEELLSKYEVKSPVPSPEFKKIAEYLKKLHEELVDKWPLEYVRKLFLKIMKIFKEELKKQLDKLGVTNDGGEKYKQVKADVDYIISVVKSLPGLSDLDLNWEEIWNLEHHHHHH

[4] = molecular target: T4, S2hlx-Ex17; experiment: SPR, mAb captured, antigen as analyte
T4 chain: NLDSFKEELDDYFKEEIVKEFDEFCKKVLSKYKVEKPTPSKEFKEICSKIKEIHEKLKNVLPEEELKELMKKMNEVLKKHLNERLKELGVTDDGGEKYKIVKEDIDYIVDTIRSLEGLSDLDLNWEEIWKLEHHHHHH

[5] = molecular target: T5, S2hlx-Ex15; experiment: SPR, mAb captured, antigen as analyte
T5 chain: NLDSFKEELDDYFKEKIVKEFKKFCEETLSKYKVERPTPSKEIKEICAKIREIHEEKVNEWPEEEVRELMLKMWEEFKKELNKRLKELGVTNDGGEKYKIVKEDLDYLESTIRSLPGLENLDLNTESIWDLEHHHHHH

[6] = molecular target: T6, S2hlx-Ex37; experiment: SPR, mAb captured, scaffold as analyte
T6 chain: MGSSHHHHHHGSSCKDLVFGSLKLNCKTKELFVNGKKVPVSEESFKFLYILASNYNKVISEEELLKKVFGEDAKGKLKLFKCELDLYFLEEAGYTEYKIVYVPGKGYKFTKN

[7] = molecular target: T7, S2hlx-Ex54; experiment: SPR, mAb captured, scaffold as analyte
T7 chain: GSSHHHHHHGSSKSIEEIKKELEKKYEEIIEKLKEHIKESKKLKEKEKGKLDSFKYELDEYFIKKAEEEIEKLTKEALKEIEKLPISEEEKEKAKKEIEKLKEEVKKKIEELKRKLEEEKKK

[8] = molecular target: T8, S2hlx-Ex34; experiment: SPR, mAb captured, scaffold as analyte
T8 chain: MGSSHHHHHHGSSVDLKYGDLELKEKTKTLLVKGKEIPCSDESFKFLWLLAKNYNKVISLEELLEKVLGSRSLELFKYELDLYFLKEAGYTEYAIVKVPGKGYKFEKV

[9] = molecular target: T9, S2hlx-Ex46; experiment: SPR, single cycle; mAb captured on Protein A, epitope scaffold as analyte
T9 epitope scaffold: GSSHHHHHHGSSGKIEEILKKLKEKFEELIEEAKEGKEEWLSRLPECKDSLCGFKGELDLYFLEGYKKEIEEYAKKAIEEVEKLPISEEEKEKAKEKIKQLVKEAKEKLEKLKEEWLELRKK

[10] = molecular target: T6, S2hlx-Ex37; experiment: as above
[11] = molecular target: T7, S2hlx-Ex54; experiment: as above
[12] = molecular target: T8, S2hlx-Ex34; experiment: ELISA; antigen coated, mAb titrated
[13] = molecular target: T10, S2hlx-Ex35; experiment: ELISA; antigen coated, mAb titrated
T10 chain: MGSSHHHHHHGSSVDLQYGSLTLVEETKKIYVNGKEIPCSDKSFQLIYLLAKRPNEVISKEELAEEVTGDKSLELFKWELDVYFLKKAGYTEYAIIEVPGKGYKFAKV

[14] = molecular target: T11, S2hlx-Ex15 F1148A; experiment: ELISA; antigen coated, mAb titrated
T11 epitope scaffold: T5 chain with F5A

[15] = molecular target: T5, S2hlx-Ex15; experiment: ELISA; antigen coated, mAb titrated
[16] = molecular target: T9, S2hlx-Ex46; experiment: ELISA; antigen coated, mAb titrated
[17] = molecular target: T2, S2hlx-Ex25; experiment: ELISA; antigen coated, mAb titrated
[18] = molecular target: T7, S2hlx-Ex54; experiment: ELISA; antigen coated, mAb titrated
[19] = molecular target: T8, S2hlx-Ex34; experiment: ELISA; antigen coated, mAb titrated
[20] = molecular target: T2, S2hlx-Ex25; experiment: SPR, mAb captured, antigen as analyte
[21] = molecular target: T12, S2hlx-Ex8-Trx; experiment: SPR, mAb captured, antigen as analyte
T12 chain: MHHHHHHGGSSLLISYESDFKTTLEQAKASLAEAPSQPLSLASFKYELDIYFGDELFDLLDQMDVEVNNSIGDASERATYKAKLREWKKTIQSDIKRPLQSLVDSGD

[22] = molecular target: T8, S2hlx-Ex34; experiment: SPR, mAb captured, antigen as analyte
[23] = molecular target: T3, S2hlx-Ex20; experiment: SPR, mAb captured, antigen as analyte
[24] = molecular target: T4, S2hlx-Ex17; experiment: SPR, mAb captured, antigen as analyte
[25] = molecular target: T5, S2hlx-Ex15; experiment: SPR, mAb captured, antigen as analyte
[26] = molecular target: SARS-CoV-2 spike (WA-2, 2P) (SARS-CoV-2, UniProt P0DTC2 14-1208)
[27] = molecular target: S2hlx-Ex2-Trx; experiment: ELISA, coated antigen, mAb titrated
[28] = molecular target: S2hlx-Ex4-Trx; experiment: ELISA, coated antigen, mAb titrated
[29] = molecular target: T13, SARS-CoV-2 spike (WA-2, 2P) (SARS-CoV-2, UniProt P0DTC2 14-1208); experiment: ELISA, coated spike, mAb titrated
[30] = molecular target: T13, SARS-CoV-2 spike (WA-2, 2P); experiment: ELISA, coated spike, mAb titrated; remark: listed apart in the source
[31] = molecular target: T13, SARS-CoV-2 spike (WA-2, 2P); experiment: ELISA, coated antigen, mAb titrated

B1: COV44-79 (antibody, V domains shown)
VH: QVQLVESGGGVVQPGRSLRLSCAASGLTFSGYAMHWVRQAPGKGLEWVAVISRDARNKYYADSVKGRFTISRDNSKKTVYLEMNSLRVEDTAVYYCAILIIPGITEPGSPDALDIWGQGTMVSVSS
VL: DIQMTQSPSSMSASVGDRVTITCRASQDISKWLAWYQQRPGKAPKLLIYAASSLQSGVPSRFSGSGSGTDFTLTISSLQPEDFATYYCQQASSFPWSITFGQGTRLEIR
Question: With B1 as the binder, how does the “EC50 (read off the curve)” value [1] read?
Answer: ~3 µg/mL

B2: CC40.8 mAb (antibody, V domains shown)
VH: EVQLLESGGGLVQPGGSLRLSCAASGFTFSSYVMTWARQAPGKGLEWVSAISGTGYTYYADSVKGRFTVSRDNSKNTLFLQMSSLRAEDTAVYYCAITMAPVVWGQGTTVTVSS
VL: SYELTQPPSVSVSPGQTARITCSGDALPKRYAYWYQQKSGQAPILVIYEDKKRPSGIPERLSGSKSGTVATLTISGAQVEDEADYYCYSTDSSGNHAVFGGGTQLTVL
Question: For B2, which “EC50 (read off the curve)” value [2] is on record?
Answer: ~0.01 µg/mL

Question: And the Kd [3]?
Answer: 10.6 nM

Question: And the Kd [4]?
Answer: 27.1 nM

Question: And the Kd [5]?
Answer: 3.4 nM

Question: What about the Kd [6] of the same binder?
Answer: 849 nM

Question: What about the Kd [7] of the same binder?
Answer: 150 nM

Question: What about the Kd [8] of the same binder?
Answer: 486 nM

Question: And the Kd [9]?
Answer: 21500 nM

Question: And the Kd [10]?
Answer: 849 nM

Question: And the Kd [11]?
Answer: 150 nM

Question: And the “EC50 (read off the curve)” value [12]?
Answer: ~0.1 µg/mL

Question: What about the “EC50 (read off the curve)” value [13] of the same binder?
Answer: ~0.8 µg/mL

Question: And the “EC50 (read off the curve)” value [14]?
Answer: ~0.02 µg/mL

Question: And the “EC50 (read off the curve)” value [15]?
Answer: ~0.02 µg/mL

Question: And the “EC50 (read off the curve)” value [16]?
Answer: ~0.2 µg/mL

Question: What about the “EC50 (read off the curve)” value [17] of the same binder?
Answer: ~0.2 µg/mL

Question: What about the “EC50 (read off the curve)” value [18] of the same binder?
Answer: ~0.04 µg/mL

Question: And the “EC50 (read off the curve)” value [19]?
Answer: ~0.4 µg/mL

Question: And the Kd [20]?
Answer: 12100 nM

Question: And the Kd [21]?
Answer: 1230 nM

Question: And the Kd [22]?
Answer: 3880 nM

Question: And the Kd [23]?
Answer: 10.6 nM

Question: What about the Kd [24] of the same binder?
Answer: 27.1 nM

Question: What about the Kd [25] of the same binder?
Answer: 3.4 nM

Question: And the Kd [26]?
Answer: 2.7 nM

Question: What about the “EC50 (read off the curve)” value [27] of the same binder?
Answer: ~0.1 µg/mL

Question: And the “EC50 (read off the curve)” value [28]?
Answer: ~0.05 µg/mL

B3: DH1498 (antibody, V domains shown)
VH: QVQLQESGPGLVKPSETLSLTCAVSGGSVSSDTYYWSWIRQPPGKGLEWIGYIYNSGSTNYNPSLKSRVTISVDTSKSQFSLNLGSVTAADTAVYYCAREGAGTYPPKNDAFDIWGQGTLVTVSS
VL: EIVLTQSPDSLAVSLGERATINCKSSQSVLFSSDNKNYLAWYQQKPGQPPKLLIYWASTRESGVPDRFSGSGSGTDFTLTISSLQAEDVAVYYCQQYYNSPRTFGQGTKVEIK
Question: For B3, which “EC50 (read off the curve)” value [29] is on record?
Answer: ~0.04 µg/mL

B4: DH1509 (antibody, V domains shown)
VH: QVQLVESGGGVVQPGRSLRLSCAASGFTLSSHGIHWVRQAPGKGLEWVAVTSFDGRNKKFGDSVKGRFTISRDNSKNTVYLQMNSLRTEDTAVYYCAKDWGDDYSRWYFDLWGRGTLVTVSS
VL: DIQMTQSPSSLSASVGDRVTITCQASHDITKYLNWYQQKPGRAPKLLIYDASNLKTGVPSRFSGSGSGTDFTFTITSLQPEDLATYYCQQSDVLPITFGQGTRLEIK
Question: B4 was tested. Which “EC50 (read off the curve)” value [30] did it give?
Answer: ~0.6 µg/mL

B5: Cov44-26 (antibody, V domains shown)
VH: QVQLVQSGAEVKKPGASVKVSCKASGYTFSNFYMNWVRQAPGQGLEWVGLISPSAGYTAYAQMFQGRVTMTRDTSTSTVYMELSSLRSEDTAVYYCARVAVAGPNDYWGQGTLVTVSS
VL: EIVLTQSPGTLSLSPGERATLSCRASQSISSSYLAWYQQKPGQAPRLVIFAASTRATGIPDRFSGSGSGTDFTLTITRLEPEDFALYYCQHYRSSPPLWTFGQGTKVEIR
Question: With B5 as the binder, how does the “EC50 (read off the curve)” value [17] read?
Answer: ~0.02 µg/mL

B6: inferred UCA of DH1501.1, DH1501.2 and DH1501.3 (antibody, V domains shown)
VH: QVQLVQSGAEVKKPGASVKVSCKASGYTFTSYYMHWVRQAPGQGLEWMGIINPSGGSTSYAQKFQGRVTMTRDTSTSTVYMELSSLRSEDTAVYYCARMSRYGAFDIWGQGIMVTVSS
VL: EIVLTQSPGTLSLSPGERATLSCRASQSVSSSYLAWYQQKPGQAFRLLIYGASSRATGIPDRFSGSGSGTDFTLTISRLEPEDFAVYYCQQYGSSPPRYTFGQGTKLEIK
Question: With B6 as the binder, how does the “EC50 (read off the curve)” value [31] read?
Answer: ~0.02 µg/mL
